Source: patent publication US20210340217A1, “NOVEL PEPTIDES AND COMBINATION OF PEPTIDES FOR USE IN IMMUNOTHERAPY AGAINST OVARIAN CANCER AND OTHER CANCERS” (Immatics Biotechnologies GmbH, priority 2017, published 2021)

Molecular target: HLA-A*03:01 (Homo sapiens, UniProt P04439)
Assay: MHC binding assay (UV-ligand exchange, beta2m ELISA)
Details: peptide exchange yield
Outline: (§1)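 Peptide–MHC complexes formed by UV-induced exchange of a UV-cleavable peptide for the test peptide. Exchange yield measured by streptavidin-capture ELISA detecting β2m (HRP anti-β2m, TMB, A450) on 100-fold diluted samples. Quantified against refolded HLA-A*02:01/MLA-001 standards (15-500 ng/ml).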

Substance	Peptide exchange
283 (IVQEPTEEK; listed as Homo sapiens) [compound 283]	++ (>20% = ++)
26 (RISEYLLEK; listed as Homo sapiens) [compound 26]	++ (>20% = ++)
256 (RTEEVLLTFK; listed as Homo sapiens) [compound 256]	++ (>20% = ++)
107 (RLQEWKALK; listed as Homo sapiens) [compound 107]	+++ (>50 = +++)
269 (RLKGDAWVYK; listed as Homo sapiens) [compound 269]	+++ (>50 = +++)
86 (VVLLGSLFSRK; listed as Homo sapiens) [compound 86]	++ (>20% = ++)
272 (RQPERTILRPR; listed as Homo sapiens) [compound 272]	++ (>20% = ++)
93 (KILEEHTNK; listed as Homo sapiens) [compound 93]	++ (>20% = ++)
276 (VSKTTGMEF; listed as Homo sapiens) [compound 276]	+ (>10% = +)
104 (VLADSVTTK; listed as Homo sapiens) [compound 104]	++ (>20% = ++)
110 (SAAPPSYFR; listed as Homo sapiens) [compound 110]	++ (>20% = ++)
278 (NLSSITHER; listed as Homo sapiens) [compound 278]	++ (>20% = ++)
94 (ATFERVLLR; listed as Homo sapiens) [compound 94]	+++ (>50 = +++)
91 (RSLRYYYEK; listed as Homo sapiens) [compound 91]	++ (>20% = ++)
88 (VVHAVFALK; listed as Homo sapiens) [compound 88]	+++ (>50 = +++)
275 (STTFPTLTK; listed as Homo sapiens) [compound 275]	++ (>20% = ++)
271 (RMFADDLHNLNK; listed as Homo sapiens) [compound 271]	+++ (>50 = +++)
27 (VLYGPAGLGK; listed as Homo sapiens) [compound 27]	+++ (>50 = +++)
87 (AVAPPTPASK; listed as Homo sapiens) [compound 87]	++ (>20% = ++)
85 (VLLGSLFSRK; listed as Homo sapiens) [compound 85]	++ (>20% = ++)

Substance	Peptide exchange
100 (RLFTSPIMTK; listed as Homo sapiens) [compound 100]	+++ (>50 = +++)
281 (RAKELEATF; listed as Homo sapiens) [compound 281]	+ (>10% = +)
279 (SVSSETTKIKR; listed as Homo sapiens) [compound 279]	++ (>20% = ++)
285 (GTVNPTVGK; listed as Homo sapiens) [compound 285]	++ (>20% = ++)
102 (SVLTSSLVK; listed as Homo sapiens) [compound 102]	++ (>20% = ++)
261 (HTFGLFYQR; listed as Homo sapiens) [compound 261]	++ (>20% = ++)
30 (ALEVAHRLK; listed as Homo sapiens) [compound 30]	++ (>20% = ++)
95 (QSMYYPLQLK; listed as Homo sapiens) [compound 95]	++ (>20% = ++)
267 (VTDLISPRK; listed as Homo sapiens) [compound 267]	++ (>20% = ++)
277 (TTALKTTSR; listed as Homo sapiens) [compound 277]	+ (>10% = +)
24 (SMYYPLQLK; listed as Homo sapiens) [compound 24]	+++ (>50 = +++)
105 (RLFSWLVNR; listed as Homo sapiens) [compound 105]	+++ (>50 = +++)
83 (GTYAHTVNR; listed as Homo sapiens) [compound 83]	+++ (>50 = +++)
109 (KTFTIKRFLAK; listed as Homo sapiens) [compound 109]	++ (>20% = ++)
99 (KVVDRWNEK; listed as Homo sapiens) [compound 99]	++ (>20% = ++)
280 (SVSGVKTTF; listed as Homo sapiens) [compound 280]	++ (>20% = ++)
286 (TVAPPQGVVK; listed as Homo sapiens) [compound 286]	++ (>20% = ++)
270 (AVFNPRFYRTY; listed as Homo sapiens) [compound 270]	++ (>20% = ++)
23 (GMMKGGIRK; listed as Homo sapiens) [compound 23]	+++ (>50 = +++)
264 (AIKVIPTVFK; listed as Homo sapiens) [compound 264]	++ (>20% = ++)

Substance	Peptide exchange
98 (LLQPPPLLAR; listed as Homo sapiens) [compound 98]	++ (>20% = ++)
21 (AVRKPIVLK; listed as Homo sapiens) [compound 21]	+++ (>50 = +++)
287 (RRIHTGEKPYK; listed as Homo sapiens) [compound 287]	++ (>20% = ++)
266 (ISYSGQFLVK; listed as Homo sapiens) [compound 266]	+++ (>50 = +++)
84 (KLQPAQTAAK; listed as Homo sapiens) [compound 84]	++ (>20% = ++)
25 (GTSPPSVEK; listed as Homo sapiens) [compound 25]	++ (>20% = ++)
274 (KTFPASTVF; listed as Homo sapiens) [compound 274]	+ (>10% = +)
259 (KTLELRVAY; listed as Homo sapiens) [compound 259]	++ (>20% = ++)
20 (RMASPVNVK; listed as Homo sapiens) [compound 20]	++++ (>75% = ++++)
89 (RVAELLLLH; listed as Homo sapiens) [compound 89]	++ (>20% = ++)
273 (RVNAIPFTY; listed as Homo sapiens) [compound 273]	+++ (>50 = +++)
22 (SLKERNPLK; listed as Homo sapiens) [compound 22]	++ (>20% = ++)
263 (SSSSATISK; listed as Homo sapiens) [compound 263]	++ (>20% = ++)
258 (GAYAHTVNR; listed as Homo sapiens) [compound 258]	+++ (>50 = +++)
101 (RVFTSSIKTK; listed as Homo sapiens) [compound 101]	++ (>20% = ++)
90 (KVAGERYVYK; listed as Homo sapiens) [compound 90]	+++ (>50 = +++)
106 (AAFVPLLLK; listed as Homo sapiens) [compound 106]	++ (>20% = ++)
28 (KTYETNLEIKK; listed as Homo sapiens) [compound 28]	+++ (>50 = +++)

Molecular target: HLA-B*44:02 (Homo sapiens, UniProt P01889, A223V/A65T/A93T/A95T/D201E/D98Y/E176V/E187L/E204Q/E69K/G107R/H137Y/K202T/L105A/L119I/N104T/N87E/Q56L/Q94N/R106L/R155S/R180D/S101N/S121R/S35A/S48T/T118I/V36M/W191S/Y140D/Y91S)
Assay: as above
Details: peptide exchange yield
Outline: as §1

Substance	Peptide exchange
419 (HEFGHVLGL; listed as Homo sapiens) [compound 419]	“++” (>20% = ++)
197 (AEVLLPRLV; listed as Homo sapiens) [compound 197]	“+++” (>50 = +++)
403 (EEAQWVRKY; listed as Homo sapiens) [compound 403]	“++” (>20% = ++)
173 (AEAQVGDERDY; listed as Homo sapiens) [compound 173]	“+++” (>50 = +++)
174 (AEATARLNVF; listed as Homo sapiens) [compound 174]	“++++” (>75% = ++++)
181 (GEGPKTSW; listed as Homo sapiens) [compound 181]	“++” (>20% = ++)
205 (SEITRIEM; listed as Homo sapiens) [compound 205]	“++” (>20% = ++)
397 (REGDTVQLL; listed as Homo sapiens) [compound 397]	“++” (>20% = ++)
398 (SFEQVVNELF; listed as Homo sapiens) [compound 398]	“++” (>20% = ++)
437 (TEAVVTNEL; listed as Homo sapiens) [compound 437]	“++” (>20% = ++)
433 (SDSQVRAF; listed as Homo sapiens) [compound 433]	“+” (>10% = +)
55 (HETETRTTW; listed as Homo sapiens) [compound 55]	“+++” (>50 = +++)
417 (AEHFSMIRA; listed as Homo sapiens) [compound 417]	“++” (>20% = ++)
191 (EEDAALFKAW; listed as Homo sapiens) [compound 191]	“+++” (>50 = +++)
408 (LEKALQVF; listed as Homo sapiens) [compound 408]	“++” (>20% = ++)
410 (SEDPSKLEA; listed as Homo sapiens) [compound 410]	“+” (>10% = +)
210 (VEAADIFQNF; listed as Homo sapiens) [compound 210]	“+++” (>50 = +++)
211 (EEKVFPSPLW; listed as Homo sapiens) [compound 211]	“+++” (>50 = +++)
207 (TEARATSDSW; listed as Homo sapiens) [compound 207]	“+++” (>50 = +++)
190 (YEVARILNL; listed as Homo sapiens) [compound 190]	“++” (>20% = ++)
52 (AEFLLRIFL; listed as Homo sapiens) [compound 52]	“++” (>20% = ++)
